Results as given in US20240317847A1 (Bayer, published 2024).

T1: murine IL-11 (mouse, UniProt P47873 22-199)
T1 sequence: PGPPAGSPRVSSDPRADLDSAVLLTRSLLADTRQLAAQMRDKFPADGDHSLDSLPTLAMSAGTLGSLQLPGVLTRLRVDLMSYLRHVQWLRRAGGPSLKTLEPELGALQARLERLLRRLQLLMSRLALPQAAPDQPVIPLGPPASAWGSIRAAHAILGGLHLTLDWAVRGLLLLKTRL

T2: human IL-11 (human, UniProt P20809 22-199)
T2 sequence: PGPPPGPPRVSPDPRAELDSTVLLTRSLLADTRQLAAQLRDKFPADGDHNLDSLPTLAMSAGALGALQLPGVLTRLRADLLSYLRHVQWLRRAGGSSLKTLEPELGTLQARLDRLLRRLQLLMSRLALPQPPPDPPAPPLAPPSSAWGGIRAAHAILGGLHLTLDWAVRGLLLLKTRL


Key:
murine IL-11 [1] = biological target: T1, murine IL-11; assay: cell-based or functional assay
human IL-11 [2] = biological target: T2, human IL-11; assay: cell-based or functional assay
murine IL-11 [3] = biological target: T1, murine IL-11; assay: cell-based or functional assay; remark: listed apart in the source
human IL-11 [4] = biological target: T2, human IL-11; assay: cell-based or functional assay; remark: listed apart in the source
murine IL-11 [5] = biological target: T1, murine IL-11; assay: SPR, antibody captured, IL-11 as analyte
Experimental: (§1) Antibodies were captured via anti-mouse Fc IgGs (“Mouse antibody capture kit, Order No. BR100383, Cytiva) covalently amine coupled to a Series S CM5 sensor chip (Cytiva). The amine coupling was carried out according to the manufacturer's instructions using 1-ethyl-3-(3-dimethylaminopropyl) carbodiimide hydrochloride (EDC), N-hydroxysuccinimide (NHS) and ethanolamine HCl, pH 8.5 (“Amine Coupling Kit” BR-1000-50, Cytiva.). Human IL-11 (Invigate, e.g., lot #C121021-19), and murine IL-11 (Invigate, e.g., lot #C210819-09) were used as analytes. […] Based on that experiment an IL-11 concentration range was chosen to optimally determine kinetics and affinity of anti-IL-11 antibodies in multicycle kinetics mode. The sensor surface was regenerated with glycine pH 1.7 after each antigen injection. Obtained sensorgrams were double referenced (subtraction of reference flow cell signal and buffer injection) and were fitted to a 1:1 Langmuir binding model to derive kinetic data using the Biacore T200 Evaluation software or the Biacore Insight software.
(§2) For the 2nd round of germlining, single reversions were then combined on DNA level, expressed and purified as described in Example 15, and tested by SPR as described in Example 16.

human IL-11 [6] = biological target: T2, human IL-11; assay: SPR, antibody captured, IL-11 as analyte
Experimental: as §1, §2

murine IL-11 [7] = biological target: T1, murine IL-11; assay: cell-based or functional assay; remark: listed apart in the source
human IL-11 [8] = biological target: T2, human IL-11; assay: cell-based or functional assay; remark: listed apart in the source

Row | Binder | RGA potency (mean) (murine IL-11 [1]) [nM] | RGA potency (mean) (human IL-11 [2]) [nM] | IC50, RGA 1 (murine IL-11 [3]) [nM] | IC50, RGA 2 (murine IL-11 [3]) [nM] | IC50, RGA 1 (human IL-11 [4]) [nM] | IC50, RGA 2 (human IL-11 [4]) [nM] | Kd (murine IL-11 [5]) [nM] | Kd (human IL-11 [6]) [nM] | Efficacy (%), RGA (murine IL-11 [7]) [%] | IC50, RGA (murine IL-11 [7]) [nM] | Efficacy (%), RGA (human IL-11 [8]) [%] | IC50, RGA (human IL-11 [8]) [nM]
1 | TPP-31286 (antibody, IgG4, V domains shown) VH: QVQLLESGGGLVQPGGSLRLSCAASGFTFSHYDMNWLRQAPGKGLEWVGVISYDGSNKFYADFVKGRFTISRDNSKNTLYLQMNSLRAEDTAVYYCARTPGSHFDYWGQGTLVTVSS VL: QSVLTQPPSASGTPGQRVTISCSGSSSNIGNNAVNWYQQLPGTAPKLLIYYDDLLPSGVPDRFSGSKSGTSASLAISGLRSEDEADYYCSAWDDSLNGVVFGGGTKLTVL | < 170 | < 170 | 18 | 13 | 59 | 37 | – | – | – | – | – | –
2 | TPP-31287 (antibody, IgG4, V domains shown) VH: EVQLVESGGGLVQPGGSLRLSCAASGFTFSHYDMNWLRQAPGKGLEWVGVISYDGSNKFYADFVKGRFTISRDNSKNTLYLQMNSLRAEDTAVYYCARTPGSHFDYWGQGTLVTVSS VL: QSVLTQPPSASGTPGQRVTISCSGSSSNIGNNAVNWYQQLPGTAPKLLIYYDDLLPSGVPDRFSGSKSGTSASLAISGLRSEDEADYYCSAWDDSLNGVVFGGGTKLTVL | < 170 | < 170 | 41 | 15 | 127 | 56 | – | – | – | – | – | –

Continued, values first:

Row | RGA potency (mean) (murine IL-11 [1]) [nM] | RGA potency (mean) (human IL-11 [2]) [nM] | IC50, RGA 1 (murine IL-11 [3]) [nM] | IC50, RGA 2 (murine IL-11 [3]) [nM] | IC50, RGA 1 (human IL-11 [4]) [nM] | IC50, RGA 2 (human IL-11 [4]) [nM] | Kd (murine IL-11 [5]) [nM] | Kd (human IL-11 [6]) [nM] | Efficacy (%), RGA (murine IL-11 [7]) [%] | IC50, RGA (murine IL-11 [7]) [nM] | Efficacy (%), RGA (human IL-11 [8]) [%] | IC50, RGA (human IL-11 [8]) [nM] | Binder
3 | < 170 | < 170 | 47 | 23 | 67 | 141 | – | – | – | – | – | – | TPP-31288 (antibody, IgG4, V domains shown) VH: EVQLLESGGGVVQPGGSLRLSCAASGFTFSHYDMNWLRQAPGKGLEWVGVISYDGSNKFYADFVKGRFTISRDNSKNTLYLQMNSLRAEDTAVYYCARTPGSHFDYWGQGTLVTVSS VL: QSVLTQPPSASGTPGQRVTISCSGSSSNIGNNAVNWYQQLPGTAPKLLIYYDDLLPSGVPDRFSGSKSGTSASLAISGLRSEDEADYYCSAWDDSLNGVVFGGGTKLTVL
4 | – | – | – | – | – | – | 0.4 | 5.9 | 89.9 | 1.4 | 55.8 | 20 | TPP-27158 (antibody, V domains shown) VH: EVQLLESGGGLVQPGGSLRLSCAASGFTFSSYGMHWVRQAPGKGLEWVAVISYDGSYKYYADSVKGRFTISRDNSKNTLYLQMNSLRAEDTAVYYCAAGVPDYWGQGTLVTVSS VL: not shown
